From US20250154287A1 (Pfizer, published 2025)

T1: biotinylated human MIGIS-α peptide (human, biotinylated)
T1 peptide: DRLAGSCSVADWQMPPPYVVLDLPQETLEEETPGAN


Key:
[1] = target: T2, parental (IgA^-) Ramos cell line, which expresses only cell surface IgM (UniProt P01871 1-474); experiment: flow cytometry on parental Ramos cells
T2 construct: whole, on cells; Negative control cells without membrane IgA; also called mIgA negative Ramos cells; parental Ramos

[2] = target: T3, human membrane IgA overexpressed on Ramos cells (human); experiment: flow cytometry, cell binding on IgA+ Ramos cells; fit table under the plot
T3 construct: its MIGIS-α segment is the short form; also called IgA^+ Ramos; human IgA^+ RAMOS cells
T3 sequence (heavy, as listed by the source): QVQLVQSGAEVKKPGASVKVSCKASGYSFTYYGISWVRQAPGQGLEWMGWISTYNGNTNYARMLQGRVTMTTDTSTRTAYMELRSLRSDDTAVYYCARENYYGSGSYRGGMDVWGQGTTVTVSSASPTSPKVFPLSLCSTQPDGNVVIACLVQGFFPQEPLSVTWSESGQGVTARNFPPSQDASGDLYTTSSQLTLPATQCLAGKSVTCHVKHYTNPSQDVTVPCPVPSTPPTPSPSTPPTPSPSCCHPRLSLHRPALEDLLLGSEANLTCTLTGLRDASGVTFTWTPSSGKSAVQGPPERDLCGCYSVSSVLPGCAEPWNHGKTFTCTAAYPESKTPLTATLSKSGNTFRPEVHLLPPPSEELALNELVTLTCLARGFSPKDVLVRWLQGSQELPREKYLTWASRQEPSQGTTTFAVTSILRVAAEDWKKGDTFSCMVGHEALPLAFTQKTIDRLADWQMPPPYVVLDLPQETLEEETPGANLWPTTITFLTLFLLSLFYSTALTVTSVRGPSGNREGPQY

[3] = target: T3, human membrane IgA overexpressed on …; experiment: flow cytometry, cell binding on IgA+ Ramos cells; fit table under the plot, unit from the y axis (gMFI minus secondary only)
[4] = target: T1, biotinylated human MIGIS-α peptide; experiment: SPR (Biacore T200, 37 C), biotinylated peptide captured, OAA as analyte, 1:1 fit
[5] = target: T4, biotinylated cyno MIGIS-α peptide (cynomolgus monkey); experiment: as above
T4 construct: domain: MIGIS-α

[6] = target: T1, biotinylated human MIGIS-α peptide; experiment: SPR, OAA format
[7] = target: T4, biotinylated cyno MIGIS-α peptide; experiment: SPR, OAA format
[8] = target: T5, human membrane IgA (mIgA), endogenously expressed on primary B cells and DAKIKI cells (human, UniProt P01876 1-398); experiment: cell-based or functional assay
T5 sequence (P01876 whole entry): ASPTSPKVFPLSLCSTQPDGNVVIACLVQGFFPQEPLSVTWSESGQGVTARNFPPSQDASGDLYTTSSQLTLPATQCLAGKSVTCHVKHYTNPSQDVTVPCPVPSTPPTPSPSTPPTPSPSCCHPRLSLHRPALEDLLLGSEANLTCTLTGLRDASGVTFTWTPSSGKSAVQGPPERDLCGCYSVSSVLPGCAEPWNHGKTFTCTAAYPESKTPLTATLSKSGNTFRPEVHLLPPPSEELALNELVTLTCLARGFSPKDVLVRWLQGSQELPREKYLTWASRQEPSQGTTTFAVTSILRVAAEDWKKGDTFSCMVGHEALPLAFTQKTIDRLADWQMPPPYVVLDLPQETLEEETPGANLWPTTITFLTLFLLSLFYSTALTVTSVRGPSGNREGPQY

[9] = target: T5, human membrane IgA (mIgA), endogenously …; experiment: cell-based or functional assay; remark: listed apart in the source
[10] = target: T5, human membrane IgA (mIgA), endogenously …; experiment: cell-based or functional assay; remark: listed apart in the source
[11] = target: T5, human membrane IgA (mIgA), endogenously …; experiment: cell-based or functional assay; remark: listed apart in the source
[12] = target: T5, human membrane IgA (mIgA), endogenously …; experiment: cell-based or functional assay; remark: listed apart in the source
[13] = target: T3, human membrane IgA overexpressed on …; experiment: flow cytometry on IgA+ Ramos cells

T2 sequence (P01871 whole entry): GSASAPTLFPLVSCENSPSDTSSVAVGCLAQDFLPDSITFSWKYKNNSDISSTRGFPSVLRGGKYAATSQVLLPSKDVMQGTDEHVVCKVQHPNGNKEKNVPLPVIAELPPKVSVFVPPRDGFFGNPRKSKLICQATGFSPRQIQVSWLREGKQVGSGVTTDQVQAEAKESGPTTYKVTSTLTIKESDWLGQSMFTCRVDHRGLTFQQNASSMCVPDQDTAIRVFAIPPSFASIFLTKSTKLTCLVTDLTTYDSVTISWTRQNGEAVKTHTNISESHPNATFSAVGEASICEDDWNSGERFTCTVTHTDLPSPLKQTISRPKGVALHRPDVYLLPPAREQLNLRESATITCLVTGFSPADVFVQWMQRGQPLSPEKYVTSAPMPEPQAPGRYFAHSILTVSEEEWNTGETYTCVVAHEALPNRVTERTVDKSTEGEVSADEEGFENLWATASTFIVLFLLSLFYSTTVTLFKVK

Binder | binding result [1] | Kd [4] [nM] | koff [4] [s⁻¹] | kon [4] [M⁻¹ s⁻¹] | Kd [5] [nM] | koff [5] [s⁻¹] | kon [5] [M⁻¹ s⁻¹] | EC50 [13] [nM] | mean fluorescence intensity at the top saturating concentration tested [13] [MFI] | also measured
GBT-IgA-0033 (H05) (antibody, V domains shown, Parental clone from naive library; huIgG1; also called HOS) VH: QVQLVESGGGVVQPGRSLRLSCAASGFTFSSYGMHWVRQAPGKGLEWVAVISYDGSNKYYADSVKGRFTISRDNSKNTLYLQMNSLRAEDTAVYYCAKLYGGNPEDAIDYWGRGTLVTVSS VL: not shown | no binding | – | – | – | – | – | – | – | – | EC50 [2]: 91.4 nM; Top [3]: 8440 gMFI
GBT-IgA-0070 (H05 in one arm antibody format) (antibody, also called H05 OAA) heavy: not shown EPKSSDKTHTCPPCPAPEAAGAPSVFLFPPKPKDTLMISRTPEVTCVVVDVSHEDPEVKFNWYVDGVEVHNAKTKPREEQYNSTYRVVSVLTVLHQDWLNGKEYKCKVSNKALPAPIEKTISKAKGQPREPQVYTLPPCREEMTKNQVSLSCAVKGFYPSDIAVEWESNGQPENNYKTTPPVLDSDGSFFLVSKLTVDKSRWQQGNVFSCSVMHEALHNRYTQKSLSLSPGK light: not shown | – | 210 | 0.0222 | 105000 | 56 | 0.0154 | 275000 | – | – | –
GBT-IgA-1572 (antibody, One-armed antibody) heavy: not shown EPKSSDKTHTCPPCPAPEAAGAPSVFLFPPKPKDTLMISRTPEVTCVVVDVSHEDPEVKFNWYVDGVEVHNAKTKPREEQYNSTYRVVSVLTVLHQDWLNGKEYKCKVSNKALPAPIEKTISKAKGQPREPQVYTLPPCREEMTKNQVSLSCAVKGFYPSDIAVEWESNGQPENNYKTTPPVLDSDGSFFLVSKLTVDKSRWQQGNVFSCSVMHEALHNRYTQKSLSLSPGK light: not shown | – | 3.47 | 0.0028 | 818000 | 3.4 | 0.0018 | 548000 | – | – | –
GBT-IgA-1091 (antibody, One-armed antibody; also called one armed antibody version of GBT-IgA-1602; OAA of GBT-IgA-1179) heavy: not shown EPKSSDKTHTCPPCPAPEAAGAPSVFLFPPKPKDTLMISRTPEVTCVVVDVSHEDPEVKFNWYVDGVEVHNAKTKPREEQYNSTYRVVSVLTVLHQDWLNGKEYKCKVSNKALPAPIEKTISKAKGQPREPQVYTLPPCREEMTKNQVSLSCAVKGFYPSDIAVEWESNGQPENNYKTTPPVLDSDGSFFLVSKLTVDKSRWQQGNVFSCSVMHEALHNRYTQKSLSLSPGK light: not shown | – | 2.13 | 0.0028 | 1.32e+06 | 2.46 | 0.0023 | 953000 | – | – | –
GBT-IgA-1090 (antibody, One-armed antibody) heavy: not shown EPKSSDKTHTCPPCPAPEAAGAPSVFLFPPKPKDTLMISRTPEVTCVVVDVSHEDPEVKFNWYVDGVEVHNAKTKPREEQYNSTYRVVSVLTVLHQDWLNGKEYKCKVSNKALPAPIEKTISKAKGQPREPQVYTLPPCREEMTKNQVSLSCAVKGFYPSDIAVEWESNGQPENNYKTTPPVLDSDGSFFLVSKLTVDKSRWQQGNVFSCSVMHEALHNRYTQKSLSLSPGK light: not shown | – | 0.724 | 0.0015 | 2.06e+06 | 1.05 | 0.0013 | 1.27e+06 | – | – | –
GBT-IgA-0752 (GBT-IgA-0862 in one armed format) (antibody, also called one armed format of GBT-IgA-0862 and of GBT-IgA-1164) heavy: not shown EPKSSDKTHTCPPCPAPEAAGAPSVFLFPPKPKDTLMISRTPEVTCVVVDVSHEDPEVKFNWYVDGVEVHNAKTKPREEQYNSTYRVVSVLTVLHQDWLNGKEYKCKVSNKALPAPIEKTISKAKGQPREPQVYTLPPCREEMTKNQVSLSCAVKGFYPSDIAVEWESNGQPENNYKTTPPVLDSDGSFFLVSKLTVDKSRWQQGNVFSCSVMHEALHNRYTQKSLSLSPGK light: not shown | – | 0.665 | 0.0015 | 2.29e+06 | 0.795 | 0.0017 | 2.22e+06 | – | – | fold affinity difference against GBT-IgA-1091 [6]: ~3 fold; fold affinity gain over T18 [6]: ~16 fold; fold affinity difference against GBT-IgA-1091 [7]: ~3 fold; fold affinity gain over T18 [7]: ~14 fold
GBT-IgA-0661 (T18-CD3 bispecific EFN EE/RR huIgG1) (bispecific antibody) heavy 1: not shown light 1: not shown heavy 2: EVQLVESGGGLVQPGGSLRLSCAASGFTFSDYYMTWVRQAPGKGLEWVAFIRNQARGYTSDHNPSVKGRFTISRDNAKNSLYLQMNSLRAEDTAVYYCARDRPSYYVLDYWGQGTTVTVSSASTKGPSVFPLAPSSKSTSGGTAALGCLVKDYFPEPVTVSWNSGALTSGVHTFPAVLQSSGLYSLSSVVTVPSSSLGTQTYICNVNHKPSNTKVDKKVEPKSCEKTHTCPPCPAPEAAGAPSVFLFPPKPKDTLMISRTPEVTCVVVDVSHEDPEVKFNWYVDGVEVHNAKTKPREEQYNSTYRVVSVLTVLHQDWLNGKEYKCKVSNKALPAPIEKTISKAKGQPREPQVYTLPPSREEMTKNQVSLTCEVKGFYPSDIAVEWESNGQPENNYKTTPPVLDSDGSFFLYSKLTVDKSRWQQGNVFSCSVMHEALHNHYTQKSLSLSPGK light 2: DIQMTQSPSSLSASVGDRVTITCTSSQSLFNVRSQKNYLAWYQQKPGKAPKLLIYWASTRESGVPSRFSGSGSGTDFTLTISSLQPEDFATYYCKQSYDLFTFGGGTKVEIKRTVAAPSVFIFPPSDEQLKSGTASVVCLLNNFYPREAKVQWKVDNALQSGNSQESVTEQDSKDSTYSLSSTLTLSKADYEKHKVYACEVTHQGLSSPVTKSFNRGEC | – | – | – | – | – | – | – | – | – | EC50 (nM), cytotoxicity against IgA^+ CD20^+ B cells by flow cytometry [8]: 2.68 nM; reduction of secreted IgA in PBMC supernatants at 300 nM (IgA ELISA) [9]: 52%; EC50 (nM), reduction in secreted IgA in human PBMC supernatants [10]: 21.2 nM
GBT-IgA-1164, anti-MIGIS-α/CD3 bispecific antibody (bispecific antibody) heavy 1: not shown light 1: not shown heavy 2: EVQLVESGGGLVQPGGSLRLSCAASGFTFSDYYMTWVRQAPGKGLEWVAFIRNQARGYTSDHNPSVKGRFTISRDNAKNSLYLQMNSLRAEDTAVYYCARDRPSYYVLDYWGQGTTVTVSSASTKGPSVFPLAPSSKSTSGGTAALGCLVKDYFPEPVTVSWNSGALTSGVHTFPAVLQSSGLYSLSSVVTVPSSSLGTQTYICNVNHKPSNTKVDKKVEPKSCEKTHTCPPCPAPEAAGAPSVFLFPPKPKDTLMISRTPEVTCVVVDVSHEDPEVKFNWYVDGVEVHNAKTKPREEQYNSTYRVVSVLTVLHQDWLNGKEYKCKVSNKALPAPIEKTISKAKGQPREPQVYTLPPSREEMTKNQVSLTCEVKGFYPSDIAVEWESNGQPENNYKTTPPVLDSDGSFFLYSKLTVDKSRWQQGNVFSCSVMHEALHNHYTQKSLSLSPGK light 2: DIQMTQSPSSLSASVGDRVTITCTSSQSLFNVRSQKNYLAWYQQKPGKAPKLLIYWASTRESGVPSRFSGSGSGTDFTLTISSLQPEDFATYYCKQSYDLFTFGGGTKVEIKRTVAAPSVFIFPPSDEQLKSGTASVVCLLNNFYPREAKVQWKVDNALQSGNSQESVTEQDSKDSTYSLSSTLTLSKADYEKHKVYACEVTHQGLSSPVTKSFNRGEC | – | – | – | – | – | – | – | – | – | EC50 (nM), IgA^+ memory B cell kill [11]: 0.318 nM; EC50 (nM), IgA producing B cell kill [12]: 0.916 nM
GBT-IgA-0035 (ET17) (antibody, V domains shown, Heavy constant region of the tested format is not tied to this name; also called E17) VH: EVQLLESGGGLVQPGGSLRLSCAASGFTFSRYAMSWVRQVPGKGLEWVSAITGSGSGTYYADPVKGRFTISRDNSKNTLYLQMNSLRAEDTAVYHCAKERSGSSSDYWGQGTLVTVSS VL: EIVLTQSPATLSLSPGERATLSCRASQTVGSHLAWYQQKPGQAPRLLIYEASNRATGIPPRFSGSGSGTDFTLTISSLEPEDFAVYYCQQRNNWPITFGQGTRLESKR | no binding | – | – | – | – | – | – | 11.9 | 23600 | –
GBT-IgA-0020 (15E7) (antibody, V domains shown) VH: EVQLLESGGGLVQPGGSLRLSCAASGFTFSSYAMSWVRQVPGKGLEWVSAITGSGSGTYYADPVKGRFTISRDNSKNTLYLQMNSLRAEDTAVYHCAKERSGSSSDYWGQGTLVTVSS VL: EIVLTQSPATLSLSPGERATLSCRASQTVSSYLAWYQQKPGQAPRLLIYEASNRATGIPPRFSGSGSGTDFTLTISSLEPEDFAVYYCQQRNNWPITFGQGTRLESKR | no binding | – | – | – | – | – | – | 64.5 | 23100 | –
GBT-IgA-0036 (ET18) (antibody, V domains shown, Heavy constant region of the tested format is not tied to this name; also called E18) VH: EVQLLESGGGLVQPGGSLRLSCAASGFTFSRYAMSWVRQVPGKGLEWVSAITGSGSGTYYADPVKGRFTISRDNSKNTLYLQMNSLRAEDTAVYHCAKERSGSSSDYWGQGTLVTVSS VL: EIVLTQSPATLSLSPGERATLSCRASQTVSSHLAWYQQKPGQAPRLLIYEASNRATGIPPRFSGSGSGTDFTLTISSLEPEDFAVYYCQQRNNWPITFGQGTRLESKR | no binding | – | – | – | – | – | – | 10.8 | 26100 | –
GBT-IgA-0034 (ET10) (antibody, V domains shown, Heavy constant region of the tested format is not tied to this name; also called E10) VH: EVQLLESGGGLVQPGGSLRLSCAASGFTFSSYAMSWVRQVPGKGLEWVSSITGSGGGTYYADPVKGRFTISRDNSKNTLYLQMNSLRAEDTAVYHCAKERSGSSSDYWGQGTLVTVSS VL: EIVLTQSPATLSLSPGERATLSCRASQTVRSHLAWYQQKPGQAPRLLIYEASNRATGIPPRFSGSGSGTDFTLTISSLEPEDFAVYYCQQRNNWPITFGQGTRLESKR | no binding | – | – | – | – | – | – | 27 | 22600 | –
GBT-IgA-0836 (T18-NKp46 bsAb) (bispecific antibody) heavy 1: not shown light 1: not shown heavy 2: not shown light 2: DIQMTQTTSSLSASLGDRVTISCRASQDISNYLNWYQQKPDGTVKLLIYYTSRLHSGVPSRFSGSGSGTDYSLTINNLEQEDIATYFCQQGNTRPWTFGGGTKLEIKRTVAAPSVFIFPPSDEQLKSGTASVVCLLNNFYPREAKVQWKVDNALQSGNSQESVTEQDSKDSTYSLSSTLTLSKADYEKHKVYACEVTHQGLSSPVTKSFNRGEC | – | – | – | – | – | – | – | – | – | EC50 (nM), cytotoxicity against IgA^+ CD20^+ B cells by flow cytometry [8]: 0.457 nM; reduction of secreted IgA in PBMC supernatants at 300 nM (IgA ELISA) [9]: 15%; EC50 (nM), reduction in secreted IgA in human PBMC supernatants [10]: 980 nM
